Source: patent publication US20190161756, “Anti-Immunoglobulin G Aptamers and Uses Thereof” (Laboratoire Francais du Fractionnement et des …, published 2019)

Legend:
Conditions in all cases: chain copies: 2; label: biotin
[1] = molecular target: T1, IgG4 (plasma IgG sub-class) (Homo sapiens, UniProt P01861-1 P01861-1:1-327); assay: SPR; pH 5.5; resistant to 2 M NaCl
Protocol: (§1) Plasma IgG's sub-classes were injected at pH 5.5 (in duplicates), whereby a complex was formed as evidenced by the increase of the signal. […] The solid support was then regenerated by injection of a solution of NaOH at 50 mM. X-axis: time in s. Y-axis: SPR response in arbitrary scale.
(§2) The selected aptamer was synthetized with Biotin and a triethylene glycol spacer at the 5′ end of the oligonucleotide. A 1 μM solution of the aptamer was prepared using the SELEX selection buffer. The aptamer solution was heated to 90° C. for 5 min, incubated on ice for 5 min and equilibrated to room temperature for 10 min. The preparation was injected on a streptavidin coated sensor chip SA of Biacore T200 instrument (GE Healthcare) at a flow rate of 10 μl/min for 7 min. Then, different concentrations of the target (Human polyclonal IgG, purified from human plasma with a purity of >95%) were injected to the immobilised aptamer at 30 μl/min for 1 minute. After dissociation for 1-2 min a wash step was performed by injecting a suitable wash buffer at 30 μl/min for 1 min. For elution, a suitable elution buffer was injected at 30 μl/min for 1-2 min Finally the sensor chip was regenerated by injection of 50 mM NaOH at 30 μl/min for 30 sec. During the course of the experiment the response signal was recorded in a sensorgram.

[2] = molecular target: T1, IgG4 (plasma IgG sub-class); assay: SPR; pH 5.5; resistant to 2 M NaCl; remark: listed apart in the source
[3] = molecular target: T1, IgG4 (plasma IgG sub-class); assay: SPR; pH 5.5; faster association, partly eluted by 2 M NaCl
Protocol: as §1, §2

T1 sequence (P01861 other isoform, or with tags, fused parts or gaps): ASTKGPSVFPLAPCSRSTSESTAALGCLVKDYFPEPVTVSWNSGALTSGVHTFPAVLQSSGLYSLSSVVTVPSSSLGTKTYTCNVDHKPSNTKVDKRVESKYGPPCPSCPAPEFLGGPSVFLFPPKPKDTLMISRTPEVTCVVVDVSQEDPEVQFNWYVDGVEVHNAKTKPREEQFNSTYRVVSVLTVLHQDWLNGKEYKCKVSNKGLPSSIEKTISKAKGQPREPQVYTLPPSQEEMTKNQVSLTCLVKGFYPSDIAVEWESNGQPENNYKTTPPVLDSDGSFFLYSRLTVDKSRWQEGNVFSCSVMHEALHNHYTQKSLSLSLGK

B1: A6-8 (ssDNA)
DNA: GGGTCAATGCCAGGTCTCCACGGTATAGTCTCGCCCAGTGCCCTTTGTTGGACTTCCTATCGGCTCGCAAGCAGTC
modifications: 5' biotin-triethylene glycol spacer
- binding result [1]: binds

B2: A6-2 (ssDNA)
DNA: GGGTCAATGCCAGGTCTCCCCAGCCTCATCTCACGGCATAGTCTCGCCACACTGGAAATCGGCTCGCAAGCAGTC
modifications: 5' biotin-triethylene glycol spacer (SPR); 5' amino-C6 spacer and 3' idT (chromatography)
- binding result [2]: binds

B3: A6-3 (ssDNA)
DNA: GGGTCAATGCCAGGTCTCGACTATTCCTCCGGCCTCTTCCCTAATCAGTGGCATCTCTATCGGCTCGCAAGCAGTC
modifications: 5' biotin-triethylene glycol spacer
- binding result [3]: binds

B4: A6-4 (ssDNA)
DNA: GGGTCAATGCCAGGTCTCAAGTTTGTGGGGCTGGGGTTCGGTCCTGGCACAAATTCGTATCGGCTCGCAAGCAGTC
modifications: 5' biotin-triethylene glycol spacer
- binding result [2]: binds
